Changes are numbered by the printed parent chain. Numbers in names are those of the source.
B1: Asp f3 wild type, recombinant, C-terminally His-tagged (enzyme)
chain: MGSGLKAGDSFPSDVVFSYIPWSEDKGEITACGIPINYNASKEWADKKVILFALPGAFTPVCSARHVPEYIEKLPEIRAKGVDVVAVLAYNDAYVMSAWGKANQVTGDDILFLSDPDARFSKSIGWADEEGRTKRYALVIDHGKITYAALEPAKNHLEFSSAETVLKHL
notes: also called Aspf3 WT; WT Asp f3; source: E. coli ClearColi BL21(DE3), purified (Ni-NTA, size-exclusion on Superdex 75); not shown: His6, C-terminal, kept
B2: Asp f3 C31S/C61S variant, recombinant, C-terminally His-tagged (enzyme)
chain: B1 chain with C32S, C62S
notes: also called serine variant; mimic of the reduced Asp f3; source: E. coli ClearColi BL21(DE3), purified (Ni-NTA, size-exclusion on Superdex 75); not shown: His6, C-terminal, kept

Molecular target: the molecule itself
Assay: AUC; sedimentation equilibrium, PBS pH 7.4, ~5, ~15 and ~25 uM protein, 10000, 20000 and 30000 rpm, 25 °C; global fit with Sedfit and Sedphat

Protein | stoichiometry N
B1 | 2
B2 | 2

Reference: article PMC5022050, “The Crystal Structure of Peroxiredoxin Asp f3 Provides Mechanistic Insight into Oxidative Stress Resistance and Virulence of Aspergillus fumigatus” (Scientific Reports, 2016)
